Legend:
Experiment in all cases: ELISA, antibody coated, OX40-ECD.His mutant supernatant; relative to silent alanine substitutions;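 also: captured OX40 mutant protein detected with HRP-labelled anti-His antibody, absorbance read-out, scaled to the mean signal of control mutants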
human OX40-ECD.His L116A = target: T1, human OX40-ECD.His L116A (human, UniProt P43489 29-214)
T1 construct: extracellular domain; not shown: C-terminal His-tag
T1 sequence (looked up): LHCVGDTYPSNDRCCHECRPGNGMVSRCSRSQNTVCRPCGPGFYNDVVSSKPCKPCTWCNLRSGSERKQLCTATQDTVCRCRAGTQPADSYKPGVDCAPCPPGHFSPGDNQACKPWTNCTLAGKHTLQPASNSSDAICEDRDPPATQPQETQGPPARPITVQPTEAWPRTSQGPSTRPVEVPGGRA

human OX40-ECD.His A173G = target: T2, human OX40-ECD.His A173G (human, UniProt P43489 29-214)
T2 construct: extracellular domain; not shown: C-terminal His-tag
T2 sequence (looked up): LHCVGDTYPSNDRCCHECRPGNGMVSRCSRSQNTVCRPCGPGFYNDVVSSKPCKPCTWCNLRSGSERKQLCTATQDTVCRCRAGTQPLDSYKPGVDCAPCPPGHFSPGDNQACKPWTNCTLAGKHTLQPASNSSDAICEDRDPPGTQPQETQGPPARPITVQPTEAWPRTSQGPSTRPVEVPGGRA

human OX40-ECD.His N88A = target: T3, human OX40-ECD.His N88A (human, UniProt P43489 29-214)
T3 construct: extracellular domain; not shown: C-terminal His-tag
T3 sequence (looked up): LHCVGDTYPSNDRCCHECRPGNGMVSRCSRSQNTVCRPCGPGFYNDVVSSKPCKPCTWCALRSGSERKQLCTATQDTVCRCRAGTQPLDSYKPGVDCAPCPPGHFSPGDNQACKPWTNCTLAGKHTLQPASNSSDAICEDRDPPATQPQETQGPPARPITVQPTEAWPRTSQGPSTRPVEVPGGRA

human OX40-ECD.His F133A = target: T4, human OX40-ECD.His F133A (human, UniProt P43489 29-214)
T4 construct: extracellular domain; not shown: C-terminal His-tag
T4 sequence (looked up): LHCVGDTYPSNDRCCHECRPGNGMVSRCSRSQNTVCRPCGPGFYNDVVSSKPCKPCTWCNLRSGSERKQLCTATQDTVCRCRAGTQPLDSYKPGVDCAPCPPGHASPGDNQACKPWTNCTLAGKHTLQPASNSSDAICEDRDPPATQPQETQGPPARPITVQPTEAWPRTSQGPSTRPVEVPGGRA

human OX40-ECD.His V106A = target: T5, human OX40-ECD.His V106A (human, UniProt P43489 29-214)
T5 construct: extracellular domain; not shown: C-terminal His-tag
T5 sequence (looked up): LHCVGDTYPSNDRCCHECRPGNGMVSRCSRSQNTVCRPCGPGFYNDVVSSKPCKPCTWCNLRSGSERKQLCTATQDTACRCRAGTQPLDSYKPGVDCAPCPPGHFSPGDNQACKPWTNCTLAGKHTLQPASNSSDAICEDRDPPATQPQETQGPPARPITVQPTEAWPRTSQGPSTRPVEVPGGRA

human OX40-ECD.His S91A = target: T6, human OX40-ECD.His S91A (human, UniProt P43489 29-214)
T6 construct: extracellular domain; not shown: C-terminal His-tag
T6 sequence (looked up): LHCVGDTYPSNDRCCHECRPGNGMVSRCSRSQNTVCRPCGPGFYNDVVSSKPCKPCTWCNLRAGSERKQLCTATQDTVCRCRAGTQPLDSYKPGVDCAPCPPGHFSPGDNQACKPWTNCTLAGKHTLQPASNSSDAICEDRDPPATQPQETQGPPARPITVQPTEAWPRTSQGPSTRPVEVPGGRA

human OX40-ECD.His P129A = target: T7, human OX40-ECD.His P129A (human, UniProt P43489 29-214)
T7 construct: extracellular domain; not shown: C-terminal His-tag
T7 sequence (looked up): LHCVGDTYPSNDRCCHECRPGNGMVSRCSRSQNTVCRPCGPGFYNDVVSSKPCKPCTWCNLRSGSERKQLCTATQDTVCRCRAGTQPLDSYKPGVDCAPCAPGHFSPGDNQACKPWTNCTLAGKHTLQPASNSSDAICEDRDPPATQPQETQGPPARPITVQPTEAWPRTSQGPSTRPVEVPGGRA

human OX40-ECD.His P80A = target: T8, human OX40-ECD.His P80A (human, UniProt P43489 29-214)
T8 construct: extracellular domain; not shown: C-terminal His-tag
T8 sequence (looked up): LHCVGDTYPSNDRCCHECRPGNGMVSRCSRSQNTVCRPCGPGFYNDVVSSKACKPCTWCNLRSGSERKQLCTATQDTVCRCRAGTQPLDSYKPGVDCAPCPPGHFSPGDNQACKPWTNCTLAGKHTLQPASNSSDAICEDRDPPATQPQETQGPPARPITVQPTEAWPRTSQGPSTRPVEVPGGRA

human OX40-ECD.His K96A = target: T9, human OX40-ECD.His K96A (human, UniProt P43489 29-214)
T9 construct: extracellular domain; not shown: C-terminal His-tag
T9 sequence (looked up): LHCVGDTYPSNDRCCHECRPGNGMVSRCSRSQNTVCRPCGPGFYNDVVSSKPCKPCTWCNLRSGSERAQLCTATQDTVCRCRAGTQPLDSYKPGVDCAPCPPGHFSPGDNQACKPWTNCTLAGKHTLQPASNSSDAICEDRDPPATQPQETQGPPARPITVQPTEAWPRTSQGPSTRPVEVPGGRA

human OX40-ECD.His P127A = target: T10, human OX40-ECD.His P127A (human, UniProt P43489 29-214)
T10 construct: extracellular domain; not shown: C-terminal His-tag
T10 sequence (looked up): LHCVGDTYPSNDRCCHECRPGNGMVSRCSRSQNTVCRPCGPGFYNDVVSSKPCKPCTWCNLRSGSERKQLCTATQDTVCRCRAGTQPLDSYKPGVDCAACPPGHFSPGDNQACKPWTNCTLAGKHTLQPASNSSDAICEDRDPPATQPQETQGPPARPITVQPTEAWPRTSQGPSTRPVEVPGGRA

B1: 1.134.9-u1-IgG1L (antibody, V domains shown)
VH: QVQLQESGPGLVKPSGTLSLTCAVSGGSISSYNWWSWVRQPPGKGLEWIGEIYHGGNTNYNPSLKSRVTMSVDNSKNQFSLKLSSVTAADTAVYYCARAPGDWGGSPYFDFWGQGTLVTVSS
VL: SSELTQDPAVSVALGQTVRITCQGDNLRTYYASWYQQKPGQAPILLIYGRNKRPSGIPDRFSGSSSGNTASLTITGAQAEDEAAYYCNSRDSSGNPVVFGGGTKLTVL
notes: fully human IgG1, lambda
Fold Change (human OX40-ECD.His L116A): 0.982
Fold Change (human OX40-ECD.His A173G): 0.993
Fold Change (human OX40-ECD.His N88A): 0.429
Fold Change (human OX40-ECD.His F133A): 0.627
Fold Change (human OX40-ECD.His V106A): 0.662
Fold Change (human OX40-ECD.His S91A): 0.886
Fold Change (human OX40-ECD.His P129A): 0.907
Fold Change (human OX40-ECD.His P80A): 0.944
Fold Change (human OX40-ECD.His K96A): 0.949
Fold Change (human OX40-ECD.His P127A): 0.953

Reference: patent US20210171647A1 (WUXI BIOLOGICS SHANGHAI, published 2021)
